Measurements as given in patent publication US8809529B2, “Imidazo[1,2-α]pyrazine derivatives” (Promega Corporation, priority 2010, dated 2014).

Tests used:
HEK293 cells = experiment: Brightness on a per mole basis in HEK293 cells (HT7 fusions); type: cell-based, human
CRE = CRE transcriptional reporter, bulk transfection, NIH3T3 cells; type: cell-based
Procedure: The transcriptional reporter containing […] and 9B8 opt-P was used in the bulk transfection of HeLa cells
HEK293, NIH3T3, or HeLa cells were plated to a single well of a 6-well tissue culture plate the day before transfection at a density of 4.5×10^5 cells/well in 3 mL complete medium (DMEM+10% FBS+1×NEAA+1× sodium pyruvate) for HEK293 cells, 3×10^5 cellsNvell in 3 mL complete medium (DMEM+10% fetal calf serum (FCS)+1×NEAA+1× sodium pyruvate) for NIH3T3 cells, or 9.9×10^5 cells/well in 3 mL complete medium (DMEM+10% FBS+1×NEAA) for HeLa cells. Cells were grown overnight at 37° C.
3,300 ng of reporter plasmid DNA in 155 4 OPTI-MEM® was mixed with 9.9 μL FUGENE® HD transfection reagent, vortexed briefly, and incubated at room temperature for 10 min. The CRE transcriptional reporters were used to transfect HEK293 and NIH3T3 cells. The HRE transcriptional reporters were used to transfect HeLa cells. The reporter mixture was added to cells and mixed by gentle rocking followed by incubation at 37° C. for 6 hrs (HEK293 and NIH3T3) or 3 hrs (HeLa). Cells were then trypsinized and resuspended in medium (DMEM+10% FBS+1×NEAA+1× sodium pyruvate for HEK293 cells, DMEM+10% FCS+1×NEAA+1× sodium pyruvate for NIH3T3 cells, or DMEM+10% FBS+1×NEAA for HeLa cells), followed by plating to the individual wells of a 96-well plate (20,000 cells/100 μL for HEK293, 10,000 cells/100 4 for NIH3T3, or […] for HeLa) and incubated at 37° C. overnight.
FSK (CRE stimulator) or 17-AAG (HRE stimulator; 17-Allylamino-demethoxy geldanamycin) in OPTI-MEM® was added to the cells (10 nM or 10 μM final concentration for FSK; 1 nM or 1 μM final concentration for 17-AAG) and incubated at 37° C. for 4 hrs (FSK) or 6 hrs (17-AAG). Plates were removed from the incubator and allowed to equilibrate to room temperature for 25 min. Cells were lysed with 100 μL lytic reagent as described above for the forward transfection. Luminescence was measured on a GLOMAX® Luminometer.

caspase-3 = target: T1, caspase-3 (Homo sapiens, UniProt P42574); experiment: Caspase-3 bioluminescent assay with 9B8 opt and z-DEVD-coelenterazine-h; type: biochemical
T1 sequence (P42574 29-175 limits assumed): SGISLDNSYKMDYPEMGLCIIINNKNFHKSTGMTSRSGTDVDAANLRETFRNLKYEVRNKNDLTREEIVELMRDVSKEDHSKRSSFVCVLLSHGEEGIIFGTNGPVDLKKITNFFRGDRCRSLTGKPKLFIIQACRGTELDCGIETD
T1 sequence (P42574 176-277 limits assumed): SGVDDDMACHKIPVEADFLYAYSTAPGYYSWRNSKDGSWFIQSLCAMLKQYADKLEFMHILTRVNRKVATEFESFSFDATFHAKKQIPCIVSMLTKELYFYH
Procedure: 1. […] Purified caspase-3 enzyme was mixed with an E. coli lysate sample expressing the variant 9B8 opt, which was prepared as described in Example 27, and diluted 10-fold in a buffer containing 100 mM MES pH 6.0, 1 mM CDTA, 150 mM KCl, 35 mM thiourea, 2 mM DTT, 0.25% TERGITOL® NP-9 (v/v), 0.025% MAZU® DF 204, with or without 23.5 μM z-DEVD-coelenterazine-h in 100 mM HEPES pH 7.5 (“DEVD” disclosed as SEQ ID NO: 581). The caspase-3 enzyme was incubated with the lysate sample for 3 hrs at room temperature, and luminescence detected on a Turner MODULUS™ luminometer at various time points. A sample containing only bacterial lysate and a sample containing only caspase-3 were used as controls. Three replicates were used.

Molecule | brightness relative to Luc2 (HEK293 cells) | brightness relative to hRL (HEK293 cells) [fold] | baseline (CRE; NIH3T3, 10 nM FSK, 4 h) | RLU (10 mM FSK) (CRE; NIH3T3, 4 h) | Response (CRE; NIH3T3, FSK) | + caspase (RLU) (caspase-3; 5 min, z-DEVD-coelenterazine-h) | no caspase (RLU) (caspase-3; 5 min, z-DEVD-coelenterazine-h) | + caspase (RLU) (caspase-3; 15.3 min) | no caspase (RLU) (caspase-3; 15.3 min) | + caspase (RLU) (caspase-3; 29.9 min) | no caspase (RLU) (caspase-3; 29.9 min) | + caspase (RLU) (caspase-3; 60.9 min) | no caspase (RLU) (caspase-3; 60.9 min) | + caspase (RLU) (caspase-3; 190.3 min) | no caspase (RLU) (caspase-3; 190.3 min)
9B8: IV variant with Q18L, F68Y, L72Q, M75K; in Tables 12, 22, 23, 26, 27 “9B8” stands for 9B8 opt (protein) MVFTLEDFVGDWRQTAGYNLDQVLEQGGLSSLFQKLGVSVTPIQKIVLSGENGLKIDIHVIIPYEGLSGYQMGQIEKIFKVVYPVDDHHFKVILHYGTLVIDGVTPNMIDYFGRPYEGIAVFDGKKITVTGTLWNGNKIIDERLINPDGSLLFRVTINGVTGWRLCERILA | approximately 15 fold | > 100 | – | – | – | – | – | – | – | – | – | – | – | – | –
9B8 opt: codon optimized version of the 9B8 variant (protein) MVFTLEDFVGDWRQTAGYNLDQVLEQGGLSSLFQKLGVSVTPIQKIVLSGENGLKIDIHVIIPYEGLSGYQMGQIEKIFKVVYPVDDHHFKVILHYGTLVIDGVTPNMIDYFGRPYEGIAVFDGKKITVTGTLWNGNKIIDERLINPDGSLLFRVTINGVTGWRLCERILA | – | – | 9,187,000 | 23,600,000 RLU | 2.6 | 25,411 RLU | 26,023 RLU | 36,906 RLU | 7,707 RLU | 41,854 RLU | 4,013 RLU | 43,370 RLU | 2,305 RLU | 42,448 RLU | 1,155 RLU
